# Values of other authors in paper PMC3869910.
# Target: alpha-bungarotoxin (Bungarus multicinctus) (UniProt P60615)
# UniProt P60615, sequence (P60615 22-95): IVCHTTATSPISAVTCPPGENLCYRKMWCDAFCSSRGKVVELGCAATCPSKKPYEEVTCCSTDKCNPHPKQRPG
substance,measurement,value
nicotinic acetylcholine receptor alpha1 (y-α1-ECD) ECD (from UniProt P02708),Kd,5 nM
